For one substance, stoichiometry N results are on record in article PMC6432644.

The target of this test is Hsp90AA1-MC, HA-tagged. The experiment in a line: native gel or EMSA. For orientation: A gel shift assay detects complexes by their altered migration in electrophoresis.

Usually stoichiometry N stands for a count of units in the complex or per binding partner. “Hsp90AA1-MC, HA-tagged (domain or fragment)” gave a stoichiometry N of 2.
